Measurements as given in patent US20230416356A1 (SCOUT BIO, published 2023).

T1: Canine IL-31_4xMUT_combo (SEQ ID NO: 74) (canine)
T1 construct: See note of m25; the entry already carries the substitutions, the leader and the His tag; also called all 4 residues (L29, Y32, Q33, and P40) substituted for alanine in combination
T1 chain: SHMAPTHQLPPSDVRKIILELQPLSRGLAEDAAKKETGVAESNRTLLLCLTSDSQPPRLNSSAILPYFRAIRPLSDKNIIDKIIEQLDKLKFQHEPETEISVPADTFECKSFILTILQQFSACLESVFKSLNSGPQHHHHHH

T2: Recombinant canine IL-31 (ProSpec-Tany); amino acid residues 24-159 of Accession no. NP_001159386; SEQ ID … (canine)
T2 chain: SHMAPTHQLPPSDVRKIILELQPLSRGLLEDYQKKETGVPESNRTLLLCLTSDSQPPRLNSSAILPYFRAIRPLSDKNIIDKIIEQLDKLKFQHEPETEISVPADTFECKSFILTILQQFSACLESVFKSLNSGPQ

T3: canine IL-31 alanine-scanning peptide (residues 18-42 of SEQ ID NO:1) Y32A (canine)
T3 construct: See note of m18; also called Y32A peptide
T3 peptide: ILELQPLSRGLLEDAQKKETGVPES

T4: canine IL-31 alanine-scanning peptide (residues 18-42 of SEQ ID NO:1) L29A (canine)
T4 construct: also called L29A peptide
T4 peptide: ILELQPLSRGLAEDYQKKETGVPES

T5: canine IL-31 alanine-scanning peptide (residues 18-42 of SEQ ID NO:1) P40A (canine)
T5 construct: See note of m18; also called P40A peptide
T5 peptide: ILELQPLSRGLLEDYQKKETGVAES

T6: canine IL-31 alanine-scanning peptide (residues 18-42 of SEQ ID NO:1) K35A (canine)
T6 construct: See note of m18; also called K35A peptide
T6 peptide: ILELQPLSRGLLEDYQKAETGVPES

T7: canine IL-31 alanine-scanning peptide (residues 18-42 of SEQ ID NO:1) S42A (canine)
T7 construct: See note of m18; also called S42A peptide
T7 peptide: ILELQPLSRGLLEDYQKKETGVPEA

T8: canine IL-31 alanine-scanning peptide (residues 18-42 of SEQ ID NO:1) V39A (canine)
T8 construct: See note of m18; also called V39A peptide
T8 peptide: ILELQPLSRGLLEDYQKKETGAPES

T9: canine IL-31 alanine-scanning peptide (residues 18-42 of SEQ ID NO:1) Q33A (canine)
T9 construct: See note of m18; also called Q33A peptide
T9 peptide: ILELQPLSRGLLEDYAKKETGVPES

T10: human IL-31 (human, UniProt Q6EBC2 24-164)
T10 construct: also called hIL-31
T10 sequence (looked up): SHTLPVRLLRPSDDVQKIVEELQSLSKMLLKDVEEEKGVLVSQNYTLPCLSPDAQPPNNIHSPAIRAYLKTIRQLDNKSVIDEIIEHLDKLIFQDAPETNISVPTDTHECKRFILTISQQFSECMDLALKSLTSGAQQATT

B1: chimeric monoclonal antibody RA4 (chRA4) (antibody, V domains shown)
VH: QIQLVQSGPELKKPGETVKISCKASGYTFTDYSMHWVKQAPGKGLRWMGWINTETGKTIHAEDFKGRVAFSLETSASTAYLQINNLKNEDTATYFCASGRPDYWGQGTTLTVSS
VL: DIVLSQSPASLAVSLGQRATISCRASESVEYYGTSLMQWYQQKPGQPPKLLIYAASGVESGVPARFSGSGSGTDFSLIIHPVEEDDIAMYFCQQSRKVPYTFGGGTKLEIKR
notes: also called chimeric RA4; chimeric RA4.D2 antibody
B2: murine monoclonal antibody RA4.D2 (antibody, V domains shown)
VH: B1 VH
VL: B1 VL
notes: Mouse hybridoma antibody with a kappa light chain; also called murine RA4

Columns and labels:
[1] = molecular target: T1, Canine IL-31_4xMUT_combo (SEQ ID NO: 74); test: ELISA, protein coated (100 ng/well)
Experimental: (§1) Binding to the various IL-31 proteins and peptides was assessed by ELISA. IL-31 proteins or peptides (100 ng/well) were immobilized to polystyrene microplates as capture antigen. Wells were blocked with PBS/0.05% Tween 20/1% BSA. Coated wells were incubated for 1 h at room temperature with anti-IL-31 mAbs diluted in PBS/0.05% Tween 20/1% BSA (100 μl/well). After washing, the plates were incubated with a 1/10,000 dilution […] Rabbit Anti-Dog IgG (whole molecule) (Sigma) in PBS/0.05% Tween 20/1% BSA. Plates were washed with PBS/0.05% Tween 20 and developed by the addition of TMB substrate. Development was stopped by the addition of 100 ul ELISA stop Solution (Invitrogen) and absorbance of each well was determined at an optical density (OD) of 450 nm.
Confirmation of the unique epitope targeted by RA4 mAb was performed by assessing the binding of RA4 mAb to full length canine IL-31 proteins that contained each of the 4 key residues identified above, substituted for alanine, and a version with all 4 residues substituted for alanine in combination. […] Binding of RA4 mAb and M14 mAb to each of the proteins was determined by ELISA, as detailed above. […] When all 4 residues (L29, Y32, Q33, and P40) were substituted for alanine in combination, no binding to canine IL-31 was detected. […]

[2] = molecular target: T2, Recombinant canine IL-31 (ProSpec-Tany; …); test: cell-based or functional assay
[3] = molecular target: T3, canine IL-31 alanine-scanning peptide …; test: ELISA on alanine-scanning peptides, normalised to the first peptide of the series
Experimental: as §1
(§2) An alanine-scanning peptide library of the region encompassing amino acid residues 18-42 of SEQ ID NO:1 was generated ([…]; SEQ ID NO:79), consisting of 25 peptides, each with a single alanine mutation at a different residue. Binding of the RA4 mAb to each of the peptides was determined by ELISA, as detailed above.

[4] = molecular target: T4, canine IL-31 alanine-scanning peptide …; test: as above
Experimental: as §1, §2

[5] = molecular target: T5, canine IL-31 alanine-scanning peptide …; test: as above
Experimental: as §1, §2

[6] = molecular target: T6, canine IL-31 alanine-scanning peptide …; test: as above
Experimental: as §1, §2

[7] = molecular target: T7, canine IL-31 alanine-scanning peptide …; test: as above
Experimental: as §1, §2

[8] = molecular target: T8, canine IL-31 alanine-scanning peptide …; test: as above
Experimental: as §1, §2

[9] = molecular target: T9, canine IL-31 alanine-scanning peptide …; test: as above
Experimental: as §1, §2

human IL-31 = molecular target: T10, human IL-31; test: ELISA, antigen coated
[10] = molecular target: T2, Recombinant canine IL-31 (ProSpec-Tany; …); test: hybridoma screen, microarray ELISA format

| Binder | binding result [1] | inhibition of canine IL-31-induced STAT-3 phosphorylation in canine DH82 cells (IC50) [2] | binding as a percentage of binding to the first peptide in the series [3] | binding as a percentage of binding to the first peptide in the series [4] | binding as a percentage of binding to the first peptide in the series [5] | binding as a percentage of binding to the first peptide in the series [6] | binding as a percentage of binding to the first peptide in the series [7] | binding as a percentage of binding to the first peptide in the series [8] | binding as a percentage of binding to the first peptide in the series [9] | binding result (human IL-31) | binding result [10] |
| --- | --- | --- | --- | --- | --- | --- | --- | --- | --- | --- | --- |
| B1 | no binding | 1.5 µg/mL | < 15% | < 15% | < 15% | < 50% | < 50% | < 50% | < 15% | no binding |  |
| B2 |  |  |  |  |  |  |  |  |  |  | binds |
